Laboratory results: the supplement of paper PMC10065799, “High-throughput profiling of sequence recognition by tyrosine kinases and SH2 domains using bacterial peptide display” (eLife, 2023)
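Also: 11-residue human phosphosite peptides and single-mutation variants displayed on the E. coli surface, counted by deep sequencing, each peptide's frequency after selection divided by its frequency in the unselected input library; frequency after pTyr selection over input frequency; kinase dosed for 20-30% of maximal phosphorylation in three min.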

What follows are sequences tested against FGFR3 (UniProt P22607) (assay: phosphorylation enrichment, bacterial display (enrichment ratio); higher = better substrate or ligand; peptides without Tyr show the background).
Chain of FGFR3 (P22607 whole entry, looked up): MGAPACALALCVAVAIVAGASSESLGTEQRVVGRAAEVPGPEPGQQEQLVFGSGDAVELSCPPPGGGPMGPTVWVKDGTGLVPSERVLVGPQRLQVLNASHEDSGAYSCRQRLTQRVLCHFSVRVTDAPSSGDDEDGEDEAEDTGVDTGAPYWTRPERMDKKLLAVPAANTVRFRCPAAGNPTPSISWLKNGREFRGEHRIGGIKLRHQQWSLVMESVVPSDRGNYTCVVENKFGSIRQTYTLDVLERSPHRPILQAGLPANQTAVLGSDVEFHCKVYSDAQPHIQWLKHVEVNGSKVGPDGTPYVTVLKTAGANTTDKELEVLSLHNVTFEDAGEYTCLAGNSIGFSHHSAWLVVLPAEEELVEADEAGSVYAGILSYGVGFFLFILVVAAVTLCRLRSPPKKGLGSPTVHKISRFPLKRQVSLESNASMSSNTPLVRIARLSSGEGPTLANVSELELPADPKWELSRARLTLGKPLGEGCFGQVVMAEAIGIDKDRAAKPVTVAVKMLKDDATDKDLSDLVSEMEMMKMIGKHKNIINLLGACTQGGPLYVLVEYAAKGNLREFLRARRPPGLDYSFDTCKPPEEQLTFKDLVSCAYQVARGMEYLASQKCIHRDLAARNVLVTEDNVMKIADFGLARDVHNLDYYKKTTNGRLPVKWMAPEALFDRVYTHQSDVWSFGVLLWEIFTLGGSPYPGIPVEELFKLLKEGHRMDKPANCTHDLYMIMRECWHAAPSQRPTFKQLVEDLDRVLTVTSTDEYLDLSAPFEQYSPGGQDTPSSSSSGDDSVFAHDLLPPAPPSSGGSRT
With PVQAAYRKVVA [HBB_Y131_Q132R] the phosphorylation enrichment was 0.373.
Sequence GTVRDYPDFNP [ANXA3_Y15_S19N] has a phosphorylation enrichment of 0.526.
For LAIEWYVVVCK [RHO_Y136_R135W], the phosphorylation enrichment was 2.21.
For IHETTYNSIMK [ACTA1_Y281], the phosphorylation enrichment was 0.436.
VIKDKYPQARF [APTX_Y209_K211Q_YF] showed a phosphorylation enrichment of 0.469.
ERQIRYLNHQL [CEP152_Y268] was tested, and the phosphorylation enrichment was 0.39.
HLSPEYKQNEI [GJB1_Y243_R238H] gave a phosphorylation enrichment of 0.728.
Sequence FDDIAHIRKTL [PIK3CA_Y1021_Y1021H] has a phosphorylation enrichment of 0.515.
With SIKDKYVTAVF [KCNH2_Y611_L615V_YF] the phosphorylation enrichment was 0.541.
KNKLNYTLPQD [NRAP_Y523] showed a phosphorylation enrichment of 0.451.
DVCKKYAEAKD [ALB_Y343_N342K] gave a phosphorylation enrichment of 0.821.
In the case of GSLEDYVRETN [GIMAP6_Y176], the phosphorylation enrichment is reported as 0.661.
In the case of KKHIPYRQHKS [CSNK1G2_Y206_E208Q], the phosphorylation enrichment is reported as 3.67.
For RPYVYYYSYLL [PTEN_Y177_R173P], the phosphorylation enrichment was 4.57.
PVKDGYQMAQP [CSF1R_Y873_L868P] gave a phosphorylation enrichment of 0.694.
Sequence KNITEYCRHLI [RECQL_Y492_D495H] has a phosphorylation enrichment of 0.533.
RPSELYYSKIS [SMG1_Y2253_G2258S] was tested, and the phosphorylation enrichment was 3.5.
FSGDFYRIQGR [DDR2_Y741_YF] showed a phosphorylation enrichment of 0.594.
Work on NTCNRYCRDEI [ITGB3_Y660] yielded a phosphorylation enrichment of 0.486.
LTDTVYSSSSA [OR4C12_Y71_I67T] was tested, and the phosphorylation enrichment was 0.586.
With AEEKEYHAEGG [EGFR_Y869] the phosphorylation enrichment was 0.596.
With SIKDKYVTVLY [KCNH2_Y611_A614V] the phosphorylation enrichment was 0.733.
Sequence DPASAYADEVK [ETNPPL_Y189_S185P] has a phosphorylation enrichment of 0.724.
In the case of PTTKTYFRHFD [HBA1_Y43_P45R], the phosphorylation enrichment is reported as 0.66.
With LLNAIYLSAKR [SERPING1_Y294_W299R] the phosphorylation enrichment was 0.963.
TENAGYYFRVS showed a phosphorylation enrichment of 1.14.
For GSRGKYSSGFH [ATM_Y332_R337H], the phosphorylation enrichment was 0.605.
HILQLYRCREE [ALPK3_Y342_T338I] showed a phosphorylation enrichment of 0.871.
Sequence RPSELYFSKIG [SMG1_Y2253_YF] has a phosphorylation enrichment of 0.654.
In the case of KVMANYMYKAG [MAML2_Y513], the phosphorylation enrichment is reported as 0.512.
With KPAFSYTSSST [SIM1_Y356] the phosphorylation enrichment was 0.475.
For EERKTYVNTML [TEK_Y1102_T1106M], the phosphorylation enrichment was 0.506.
For DAAEDYAEGVR [DHODH_Y194], the phosphorylation enrichment was 0.746.

What follows are sequences tested against Hck (UniProt P08631) in the same assay as above.
Chain of Hck (P08631 whole entry, looked up): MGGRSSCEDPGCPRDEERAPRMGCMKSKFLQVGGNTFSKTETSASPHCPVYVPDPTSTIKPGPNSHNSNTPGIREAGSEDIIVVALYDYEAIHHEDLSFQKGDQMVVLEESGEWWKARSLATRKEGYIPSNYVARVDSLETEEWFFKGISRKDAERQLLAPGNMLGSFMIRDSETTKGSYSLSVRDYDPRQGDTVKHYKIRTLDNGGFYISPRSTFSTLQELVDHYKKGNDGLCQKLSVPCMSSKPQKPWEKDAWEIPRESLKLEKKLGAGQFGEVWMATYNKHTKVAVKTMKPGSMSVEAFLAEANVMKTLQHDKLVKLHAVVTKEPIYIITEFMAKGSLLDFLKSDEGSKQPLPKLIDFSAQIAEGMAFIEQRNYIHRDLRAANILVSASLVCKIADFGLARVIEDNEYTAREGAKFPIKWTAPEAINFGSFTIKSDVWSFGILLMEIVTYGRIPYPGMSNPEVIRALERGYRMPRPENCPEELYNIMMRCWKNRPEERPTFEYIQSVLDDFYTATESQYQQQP
With PVQAAYRKVVA [HBB_Y131_Q132R] the phosphorylation enrichment was 0.543.
Work on GTVRDYPDFNP [ANXA3_Y15_S19N] yielded a phosphorylation enrichment of 0.418.
Sequence LAIEWYVVVCK [RHO_Y136_R135W] has a phosphorylation enrichment of 1.36.
For IHETTYNSIMK [ACTA1_Y281], the phosphorylation enrichment was 1.38.
In the case of VIKDKYPQARF [APTX_Y209_K211Q_YF], the phosphorylation enrichment is reported as 0.308.
Work on ERQIRYLNHQL [CEP152_Y268] yielded a phosphorylation enrichment of 0.4.
In the case of HLSPEYKQNEI [GJB1_Y243_R238H], the phosphorylation enrichment is reported as 0.614.
Work on FDDIAHIRKTL [PIK3CA_Y1021_Y1021H] yielded a phosphorylation enrichment of 0.553.
In the case of SIKDKYVTAVF [KCNH2_Y611_L615V_YF], the phosphorylation enrichment is reported as 0.467.
KNKLNYTLPQD [NRAP_Y523] gave a phosphorylation enrichment of 0.406.
Sequence DVCKKYAEAKD [ALB_Y343_N342K] has a phosphorylation enrichment of 0.659.
Sequence GSLEDYVRETN [GIMAP6_Y176] has a phosphorylation enrichment of 0.54.
With KKHIPYRQHKS [CSNK1G2_Y206_E208Q] the phosphorylation enrichment was 1.56.
For RPYVYYYSYLL [PTEN_Y177_R173P], the phosphorylation enrichment was 2.09.
With PVKDGYQMAQP [CSF1R_Y873_L868P] the phosphorylation enrichment was 0.833.
For KNITEYCRHLI [RECQL_Y492_D495H], the phosphorylation enrichment was 0.455.
With RPSELYYSKIS [SMG1_Y2253_G2258S] the phosphorylation enrichment was 11.1.
For FSGDFYRIQGR [DDR2_Y741_YF], the phosphorylation enrichment was 0.449.
NTCNRYCRDEI [ITGB3_Y660] was tested, and the phosphorylation enrichment was 0.407.
In the case of LTDTVYSSSSA [OR4C12_Y71_I67T], the phosphorylation enrichment is reported as 1.93.
AEEKEYHAEGG [EGFR_Y869] showed a phosphorylation enrichment of 0.451.
SIKDKYVTVLY [KCNH2_Y611_A614V] was tested, and the phosphorylation enrichment was 0.455.
Sequence DPASAYADEVK [ETNPPL_Y189_S185P] has a phosphorylation enrichment of 0.557.
PTTKTYFRHFD [HBA1_Y43_P45R] gave a phosphorylation enrichment of 0.539.
LLNAIYLSAKR [SERPING1_Y294_W299R] showed a phosphorylation enrichment of 1.36.
With TENAGYYFRVS the phosphorylation enrichment was 0.728.
GSRGKYSSGFH [ATM_Y332_R337H] was tested, and the phosphorylation enrichment was 0.391.
HILQLYRCREE [ALPK3_Y342_T338I] was tested, and the phosphorylation enrichment was 0.553.
With RPSELYFSKIG [SMG1_Y2253_YF] the phosphorylation enrichment was 1.74.
Sequence KVMANYMYKAG [MAML2_Y513] has a phosphorylation enrichment of 0.461.
With KPAFSYTSSST [SIM1_Y356] the phosphorylation enrichment was 0.446.
In the case of EERKTYVNTML [TEK_Y1102_T1106M], the phosphorylation enrichment is reported as 0.378.
Sequence DAAEDYAEGVR [DHODH_Y194] has a phosphorylation enrichment of 0.586.

The sequences below were run on c-Abl (mouse) in the same assay as above.
PVQAAYRKVVA [HBB_Y131_Q132R] gave a phosphorylation enrichment of 0.48.
Work on GTVRDYPDFNP [ANXA3_Y15_S19N] yielded a phosphorylation enrichment of 0.663.
Work on LAIEWYVVVCK [RHO_Y136_R135W] yielded a phosphorylation enrichment of 2.27.
With IHETTYNSIMK [ACTA1_Y281] the phosphorylation enrichment was 0.572.
For VIKDKYPQARF [APTX_Y209_K211Q_YF], the phosphorylation enrichment was 0.47.
Work on ERQIRYLNHQL [CEP152_Y268] yielded a phosphorylation enrichment of 0.523.
HLSPEYKQNEI [GJB1_Y243_R238H] showed a phosphorylation enrichment of 0.716.
Work on FDDIAHIRKTL [PIK3CA_Y1021_Y1021H] yielded a phosphorylation enrichment of 0.611.
For SIKDKYVTAVF [KCNH2_Y611_L615V_YF], the phosphorylation enrichment was 0.682.
KNKLNYTLPQD [NRAP_Y523] showed a phosphorylation enrichment of 0.468.
In the case of DVCKKYAEAKD [ALB_Y343_N342K], the phosphorylation enrichment is reported as 0.775.
GSLEDYVRETN [GIMAP6_Y176] was tested, and the phosphorylation enrichment was 0.619.
In the case of KKHIPYRQHKS [CSNK1G2_Y206_E208Q], the phosphorylation enrichment is reported as 3.26.
Sequence RPYVYYYSYLL [PTEN_Y177_R173P] has a phosphorylation enrichment of 1.4.
For PVKDGYQMAQP [CSF1R_Y873_L868P], the phosphorylation enrichment was 0.278.
With KNITEYCRHLI [RECQL_Y492_D495H] the phosphorylation enrichment was 0.654.
In the case of RPSELYYSKIS [SMG1_Y2253_G2258S], the phosphorylation enrichment is reported as 0.926.
Work on FSGDFYRIQGR [DDR2_Y741_YF] yielded a phosphorylation enrichment of 0.578.
In the case of NTCNRYCRDEI [ITGB3_Y660], the phosphorylation enrichment is reported as 0.596.
For LTDTVYSSSSA [OR4C12_Y71_I67T], the phosphorylation enrichment was 0.911.
Work on AEEKEYHAEGG [EGFR_Y869] yielded a phosphorylation enrichment of 0.653.
With SIKDKYVTVLY [KCNH2_Y611_A614V] the phosphorylation enrichment was 0.594.
With DPASAYADEVK [ETNPPL_Y189_S185P] the phosphorylation enrichment was 0.794.
With PTTKTYFRHFD [HBA1_Y43_P45R] the phosphorylation enrichment was 0.667.
LLNAIYLSAKR [SERPING1_Y294_W299R] was tested, and the phosphorylation enrichment was 1.61.
TENAGYYFRVS was tested, and the phosphorylation enrichment was 1.04.
GSRGKYSSGFH [ATM_Y332_R337H] showed a phosphorylation enrichment of 0.579.
Sequence HILQLYRCREE [ALPK3_Y342_T338I] has a phosphorylation enrichment of 0.423.
For RPSELYFSKIG [SMG1_Y2253_YF], the phosphorylation enrichment was 0.687.
KVMANYMYKAG [MAML2_Y513] showed a phosphorylation enrichment of 0.54.
In the case of KPAFSYTSSST [SIM1_Y356], the phosphorylation enrichment is reported as 0.606.
Work on EERKTYVNTML [TEK_Y1102_T1106M] yielded a phosphorylation enrichment of 0.55.
DAAEDYAEGVR [DHODH_Y194] was tested, and the phosphorylation enrichment was 0.695.

The sequences below were run against Fes (UniProt P07332) in the same assay as above.
Chain of Fes (P07332 whole entry, looked up): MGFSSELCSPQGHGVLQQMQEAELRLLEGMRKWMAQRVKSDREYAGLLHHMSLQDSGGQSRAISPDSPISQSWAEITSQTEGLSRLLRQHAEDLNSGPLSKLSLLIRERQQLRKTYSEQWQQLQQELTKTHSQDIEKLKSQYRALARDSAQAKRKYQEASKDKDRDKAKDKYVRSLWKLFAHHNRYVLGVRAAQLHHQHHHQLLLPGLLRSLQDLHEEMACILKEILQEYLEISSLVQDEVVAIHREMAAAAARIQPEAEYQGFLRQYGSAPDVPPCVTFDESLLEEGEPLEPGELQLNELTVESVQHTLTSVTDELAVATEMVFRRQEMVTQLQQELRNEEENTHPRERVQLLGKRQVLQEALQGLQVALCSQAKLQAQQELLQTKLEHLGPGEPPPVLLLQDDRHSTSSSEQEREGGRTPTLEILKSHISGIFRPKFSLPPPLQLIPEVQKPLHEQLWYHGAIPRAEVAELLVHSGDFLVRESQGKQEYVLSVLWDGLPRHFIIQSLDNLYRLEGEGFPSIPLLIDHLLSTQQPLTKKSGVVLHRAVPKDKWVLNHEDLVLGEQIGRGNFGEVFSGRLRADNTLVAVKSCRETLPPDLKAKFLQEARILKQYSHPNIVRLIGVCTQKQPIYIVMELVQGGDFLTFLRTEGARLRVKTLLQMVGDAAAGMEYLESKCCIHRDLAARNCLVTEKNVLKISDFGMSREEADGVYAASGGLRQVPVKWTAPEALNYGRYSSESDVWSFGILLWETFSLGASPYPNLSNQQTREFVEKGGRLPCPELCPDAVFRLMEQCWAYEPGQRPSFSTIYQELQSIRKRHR
With PVQAAYRKVVA [HBB_Y131_Q132R] the phosphorylation enrichment was 0.505.
For GTVRDYPDFNP [ANXA3_Y15_S19N], the phosphorylation enrichment was 0.796.
LAIEWYVVVCK [RHO_Y136_R135W] gave a phosphorylation enrichment of 3.21.
IHETTYNSIMK [ACTA1_Y281] gave a phosphorylation enrichment of 0.711.
With VIKDKYPQARF [APTX_Y209_K211Q_YF] the phosphorylation enrichment was 0.579.
ERQIRYLNHQL [CEP152_Y268] was tested, and the phosphorylation enrichment was 0.527.
HLSPEYKQNEI [GJB1_Y243_R238H] gave a phosphorylation enrichment of 1.07.
FDDIAHIRKTL [PIK3CA_Y1021_Y1021H] showed a phosphorylation enrichment of 0.844.
Work on SIKDKYVTAVF [KCNH2_Y611_L615V_YF] yielded a phosphorylation enrichment of 0.794.
In the case of KNKLNYTLPQD [NRAP_Y523], the phosphorylation enrichment is reported as 0.523.
DVCKKYAEAKD [ALB_Y343_N342K] showed a phosphorylation enrichment of 1.23.
For GSLEDYVRETN [GIMAP6_Y176], the phosphorylation enrichment was 0.869.
For KKHIPYRQHKS [CSNK1G2_Y206_E208Q], the phosphorylation enrichment was 3.45.
For RPYVYYYSYLL [PTEN_Y177_R173P], the phosphorylation enrichment was 1.6.
PVKDGYQMAQP [CSF1R_Y873_L868P] gave a phosphorylation enrichment of 1.11.
For KNITEYCRHLI [RECQL_Y492_D495H], the phosphorylation enrichment was 0.855.
RPSELYYSKIS [SMG1_Y2253_G2258S] gave a phosphorylation enrichment of 1.02.
With FSGDFYRIQGR [DDR2_Y741_YF] the phosphorylation enrichment was 0.817.
NTCNRYCRDEI [ITGB3_Y660] gave a phosphorylation enrichment of 0.777.
LTDTVYSSSSA [OR4C12_Y71_I67T] showed a phosphorylation enrichment of 1.15.
In the case of AEEKEYHAEGG [EGFR_Y869], the phosphorylation enrichment is reported as 1.05.
SIKDKYVTVLY [KCNH2_Y611_A614V] gave a phosphorylation enrichment of 0.903.
For DPASAYADEVK [ETNPPL_Y189_S185P], the phosphorylation enrichment was 1.2.
In the case of PTTKTYFRHFD [HBA1_Y43_P45R], the phosphorylation enrichment is reported as 0.998.
In the case of LLNAIYLSAKR [SERPING1_Y294_W299R], the phosphorylation enrichment is reported as 1.43.
Sequence TENAGYYFRVS has a phosphorylation enrichment of 2.21.
For GSRGKYSSGFH [ATM_Y332_R337H], the phosphorylation enrichment was 0.535.
HILQLYRCREE [ALPK3_Y342_T338I] was tested, and the phosphorylation enrichment was 1.05.
Sequence RPSELYFSKIG [SMG1_Y2253_YF] has a phosphorylation enrichment of 0.671.
KVMANYMYKAG [MAML2_Y513] showed a phosphorylation enrichment of 0.836.
KPAFSYTSSST [SIM1_Y356] gave a phosphorylation enrichment of 0.635.
For EERKTYVNTML [TEK_Y1102_T1106M], the phosphorylation enrichment was 0.803.
DAAEDYAEGVR [DHODH_Y194] was tested, and the phosphorylation enrichment was 1.31.
